Data reported in paper PMC9130567.

Biological target: Human properdin (factor P) (human) (UniProt P27918)
Test: SPR; FP immobilised by amine coupling to 79.55 RU; FXI or FXIa injected by OneStep gradient, maximum 50 nM, 30 uL/min, dissociation 300 s; Pall/ForteBio Pioneer; run in triplicate

Sequence of UniProt P27918 (P27918 28-469): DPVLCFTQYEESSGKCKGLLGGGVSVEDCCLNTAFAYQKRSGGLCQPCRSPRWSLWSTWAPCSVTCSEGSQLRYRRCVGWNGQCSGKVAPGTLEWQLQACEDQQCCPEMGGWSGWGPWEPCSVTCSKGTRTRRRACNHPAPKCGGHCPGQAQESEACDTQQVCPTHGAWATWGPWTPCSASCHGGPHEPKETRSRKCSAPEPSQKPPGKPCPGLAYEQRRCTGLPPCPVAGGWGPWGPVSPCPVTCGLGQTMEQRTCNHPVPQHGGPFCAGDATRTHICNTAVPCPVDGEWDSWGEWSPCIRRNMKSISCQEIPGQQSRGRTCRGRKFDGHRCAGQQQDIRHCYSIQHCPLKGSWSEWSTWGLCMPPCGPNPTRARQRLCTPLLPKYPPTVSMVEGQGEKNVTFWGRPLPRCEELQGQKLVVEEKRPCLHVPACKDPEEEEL

Substance | Kd [nM]
Human activated coagulation factor XI (preactivated by FXIIa) (enzyme) | 0.35
Human coagulation factor XI zymogen (natural protein) | 16.1
